Laboratory results taken from patent publication US20160090426A1 (WUHAN YZY BIOPHARMA, published 2016).

Tests used:
[1] = biological target: T1, EpCAM on EpCAM-positive HCT116 cells (UniProt P16422 24-314, limits assumed); assay: cell-based or functional assay
T1 sequence (looked up): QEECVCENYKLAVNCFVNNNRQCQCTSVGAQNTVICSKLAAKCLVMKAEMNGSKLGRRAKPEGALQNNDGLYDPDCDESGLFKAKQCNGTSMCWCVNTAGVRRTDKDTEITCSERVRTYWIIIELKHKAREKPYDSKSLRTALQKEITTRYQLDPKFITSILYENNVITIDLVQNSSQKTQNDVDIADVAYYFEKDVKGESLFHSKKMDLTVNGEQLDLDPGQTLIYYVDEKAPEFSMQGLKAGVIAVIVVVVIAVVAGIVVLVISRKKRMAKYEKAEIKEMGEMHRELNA

[2] = biological target: CD3 on CD3-positive Jurkat cells; assay: cell-based or functional assay
[3] = biological target: T2, CD3 on CD3-positive Jurkat cells; assay: flow cytometry on Jurkat cells, KD fitted from mean fluorescence intensity
T2 construct: whole, on cells
Description: (§1) Enough HCT116 cells are cultured, digested with 0.25% trypsin and then collected by centrifugation. In the meantime, the bispecific antibody was diluted according to the concentration beginning from 10 ug/ml and ten-fold gradient dilution to obtain twelve concentration gradients for later use.
Enough Jurkat suspension cells were cultured and collected by centrifugation. The same as the steps described in the example forementioned, in the following experimental process, the cells resuspended with 100 ul PBS were detected on an instrument, and the binding affinity KD value of the bispecific antibody and the Jurkat cells was analyzed and calculated according to the mean fluorescence intensity by using software GraphPadPrism 5.0.

[4] = biological target: T1, EpCAM on EpCAM-positive HCT116 cells; assay: flow cytometry on HCT116 cells, PE anti-human IgG Fc, KD fitted from mean fluorescence intensity
Description: as §1

B1: EpCAM×CD3 bispecific antibody M701 (bispecific antibody, human IgG1, kappa)
heavy: EVQLLEQSGAELVRPGTSVKISCKASGYAFTNYWLGWVKQRPGHGLEWIGDIFPGSGNIHYNEKFKGKATLTADKSSSTAYMQLSSLTFEDSAVYFCARLRNWDEPMDYWGQGTTVTVSSASTKGPSVFPLAPSSKSTSGGTAALGCLVKDYFPEPVTVSWNSGALTSGVHTFPAVLQSSGLYSLSSVVTVPSSSLGTQTYICNVNHKPSNTKVDKKVEPKSCDKTHTCPPCPAPELLGGPSVFLFPPKPKDTLMISRTPEVTCVVVDVSHEDPEVKFNWYVDGVEVHNAKTKPREEQYNSTYRVVSVLTVLHQDWLNGKEYKCKVSNKALPAPIEKTISKAKGQPREPQVYTLPPSRDELTKNQVSLWCLVKGFYPSDIAVEWESNGQPENNYDTTPPVLDSDGSFFLYSDLTVDKSRWQQGNVFSCSVMHEALHNHYTQKSLSLSPGK
light: ELVMTQSPSSLTVTAGEKVTMSCKSSQSLLNSGNQKNYLTWYQQKPGQPPKLLIYWASTRESGVPDRFTGSGSGTDFTLTISSVQAEDLAVYYCQNDYSYPLTFGAGTKLEIKRTVAAPSVFIFPPSDEQLKSGTASVVCLLNNFYPREAKVQWKVDNALQSGNSQESVTEQDSKDSTYSLSSTLTLSKADYEKHKVYACEVTHQGLSSPVTKSFNRGEC
chain: not shown
notes: Heterodimer of one anti-EpCAM heavy/light chain pair (IgG form) and one anti-CD3 ScFv-Fc; also called EpCAM×CD3 MSBODY; EpCAM×CD3 MSBODY bispecific antibody
With B1 the “ratio of bifluorescence via flow cytometer detection (double positive CFSE-HCT116 / PKH-26-Jurkat cells)” value [1] was 27.5%, the “ratio of bifluorescence via flow cytometer detection (double positive CFSE-HCT116 / PKH-26-Jurkat cells)” value [2] was 27.5% and the Kd [3] was 14.3 nM. It also gave a Kd [4] of 9.6 nM.
